Reference: article PMC9705314, “Characterization of a new potent and long-lasting single chain peptide agonist of RXFP1 in cells and in vivo translational models” (Scientific Reports, 2022)

Legend:
human RXFP1 (human) = human RXFP1 (human) (UniProt Q9HBX9)
rat RXFP1 (rat) = rat RXFP1 (rat) (UniProt Q6R6I6)
Chain of rat RXFP1 (rat) (Q6R6I6 whole entry): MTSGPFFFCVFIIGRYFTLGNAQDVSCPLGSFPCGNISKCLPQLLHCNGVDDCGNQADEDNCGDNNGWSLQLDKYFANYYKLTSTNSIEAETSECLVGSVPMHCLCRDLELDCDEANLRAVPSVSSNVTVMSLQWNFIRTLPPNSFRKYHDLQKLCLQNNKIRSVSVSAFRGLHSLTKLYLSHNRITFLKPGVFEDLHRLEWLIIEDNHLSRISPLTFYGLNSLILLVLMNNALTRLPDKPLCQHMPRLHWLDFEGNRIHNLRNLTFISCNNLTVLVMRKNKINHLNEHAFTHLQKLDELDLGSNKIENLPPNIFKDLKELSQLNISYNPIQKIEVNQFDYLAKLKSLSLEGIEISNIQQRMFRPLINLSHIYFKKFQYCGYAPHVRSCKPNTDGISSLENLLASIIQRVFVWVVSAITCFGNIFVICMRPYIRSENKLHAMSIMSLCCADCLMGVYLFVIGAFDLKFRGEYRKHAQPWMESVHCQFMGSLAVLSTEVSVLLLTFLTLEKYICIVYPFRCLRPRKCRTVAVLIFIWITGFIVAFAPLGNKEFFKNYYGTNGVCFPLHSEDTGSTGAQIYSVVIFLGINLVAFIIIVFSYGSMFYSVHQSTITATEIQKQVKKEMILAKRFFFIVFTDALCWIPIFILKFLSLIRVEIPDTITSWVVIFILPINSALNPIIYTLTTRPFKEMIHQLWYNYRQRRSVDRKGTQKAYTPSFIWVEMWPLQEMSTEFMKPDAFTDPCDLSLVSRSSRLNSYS

Chain of human RXFP1 (human) (Q9HBX9 whole entry): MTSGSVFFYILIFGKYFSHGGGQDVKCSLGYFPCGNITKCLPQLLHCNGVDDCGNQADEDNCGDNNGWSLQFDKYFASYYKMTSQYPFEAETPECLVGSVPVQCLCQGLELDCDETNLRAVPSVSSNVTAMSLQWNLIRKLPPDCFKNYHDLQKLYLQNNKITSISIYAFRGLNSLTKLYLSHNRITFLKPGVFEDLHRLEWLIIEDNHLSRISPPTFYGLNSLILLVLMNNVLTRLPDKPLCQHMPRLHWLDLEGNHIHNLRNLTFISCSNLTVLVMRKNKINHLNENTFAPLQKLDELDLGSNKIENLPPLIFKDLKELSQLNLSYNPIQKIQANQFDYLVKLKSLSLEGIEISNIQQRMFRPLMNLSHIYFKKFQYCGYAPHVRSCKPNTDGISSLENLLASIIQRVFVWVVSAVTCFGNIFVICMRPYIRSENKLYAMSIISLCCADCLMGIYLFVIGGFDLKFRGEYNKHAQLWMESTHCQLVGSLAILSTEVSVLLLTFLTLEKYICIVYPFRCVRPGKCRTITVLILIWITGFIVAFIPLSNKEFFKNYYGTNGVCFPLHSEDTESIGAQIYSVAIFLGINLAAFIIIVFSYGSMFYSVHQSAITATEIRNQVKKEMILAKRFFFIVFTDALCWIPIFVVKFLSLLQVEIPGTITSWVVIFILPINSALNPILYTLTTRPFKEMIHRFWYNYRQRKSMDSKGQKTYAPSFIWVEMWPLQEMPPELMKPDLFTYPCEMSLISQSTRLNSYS

## Human recombinant relaxin (B-29/A-24) (ligand)
Human RXFP1 (human)
  cAMP (HTRF) in EA.hy926 hRXFP1 cells, EC50: 0.06 nM
  cAMP (HTRF) in EA.hy926 hRXFP1 cells, Emax (% of the 100 nM relaxin response): 100%
  cAMP (HTRF) in OVCAR5 cells with endogenous human RXFP1, EC50: 1.8 nM
  cAMP (HTRF) in OVCAR5 cells with endogenous human RXFP1, Emax (% of the 100 nM relaxin response): 96.2%
Rat RXFP1 (rat)
  cAMP (HTRF) in HEK ratRXFP1 cells, EC50: 1.4 nM
  cAMP (HTRF) in HEK ratRXFP1 cells, Emax (% of the 100 nM relaxin response): 95.6%
